The target in this assay is T1, EGF receptor (Homo sapiens, UniProt P00533).
T1 construct: endogenous in cells; host or cells: A431 cells
Briefly: 125I-EGF competition radioisotope assay on A431 cells. The format is binding. As to conditions: 4° C., 4 h. The protocol:
The retention of EGF binding activity after chemical coupling of ADM-HZN to EGF was determined by a competition radioisotope assay, using the A431 cell line. This cell line was derived from a […] and in our laboratory can bind between 1-4×10^7 molecules of EGF (results not shown). Cells, diluted in RPMI 1640 growth medium containing 10% FCS, were plated in 96-well microtiter plates (5×10^5 cells/well) 24 h before the assay. On the day of the assay, the A431 cells, which grow as an adherent cell population, were washed in DMEM containing 2% bovine serum albumin (hereafter referred to as buffer A). Cells (in triplicate) were incubated with 0.05 ml of 2-fold serially diluted EGF or EGF-ADM, and 0.05 ml of ^125 I-labeled EGF (50 ng/ml) diluted in buffer A (final volume: 0.1 ml/well). The cells were incubated at 4° C. for 4 h, and then washed 3 times with buffer A. The cells were removed from the 96-well plastic plates by solubilization with 1.0M NaOH, and the amount of cell-bound ^125 I-EGF was determined by counting on a LKB model 1272 gamma counter.

Entries after “also recorded” stand apart in the source; their conditions may differ.

As for “EGF-ADM: SPDP-thiolated murine EGF reacted with ADM-HZN, 13-keto acylhydrazone linker”, the “inhibition of 125I-EGF binding, binding activity vs unconjugated EGF” value was “only a small loss in binding activity; also recorded: retention of binding activity”.
